The supplement of paper PMC10724198
± gives the standard deviation of the averaged measurements.

Test system: Saccharomyces cerevisiae
Assay: protein stability index of tFT-peptide fusion (C-terminal peptide) (PSI (0-1 scale)); higher = more stable (slower turnover)
Settings: temperature: 30 C
Procedure: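 MPS profiling in S. cerevisiae of the yeast C-terminome library: the last 12 aa of each annotated ORF are fused to the C-terminus of a sfGFP-mCherry timer, after a GGGS linker. Cells are FACS-sorted into 8 mCherry/sfGFP bins and deep-sequenced. PSI runs from 0 (unstable) to 1 (stable); wild type and das1Δ backgrounds, two technical replicates each.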

[1] = genetic background: das1 deletion

Row | Sequence | protein stability index [1] | protein stability index (genetic background: wild type)
1 | ANCNTADCLEDH [COT1 C-terminal 12 aa] | 0.6866 ± 0.0051 | 0.708 ± 0.012
2 | ANLRAYFGPGFT [BUD6 C-terminal 12 aa] | 0.719 ± 0.017 | 0.691 ± 0.0094
3 | AQLLAYLMHKSN [LPL1 C-terminal 12 aa] | 0.714 ± 0.013 | 0.252 ± 0.013
4 | ASFENETVKANV [RFC3 C-terminal 12 aa] | 0.706 ± 0.019 | 0.704 ± 0.0078
5 | ASKESSKEDVAN [MUM2 C-terminal 12 aa] | 0.69 ± 0.0096 | 0.661 ± 0.032
6 | ASQAKNSIEDDV [GTR2 C-terminal 12 aa] | 0.721 ± 0.021 | 0.689 ± 0.031
7 | ASREREKRRQSE [VAN1 C-terminal 12 aa] | 0.724 ± 0.0075 | 0.76362 ± 0.00071
8 | ATAREWTKKYAV [UBC4 C-terminal 12 aa] | 0.702 ± 0.0071 | 0.7122 ± 0.0016
9 | ATCGSSTYFARK [MCO8 C-terminal 12 aa] | 0.6938 ± 0.0026 | 0.746 ± 0.054
10 | ATPQKRTGPARG [YER088C-A C-terminal 12 aa] | 0.68 ± 0.018 | 0.66 ± 0.018
11 | ATSILLWYSNYS [CNM1 C-terminal 12 aa] | 0.739 ± 0.013 | 0.6973 ± 0.00096
12 | AVIGVYGEGQFI [ATG33 C-terminal 12 aa] | 0.6986 ± 0.0067 | 0.693 ± 0.049
13 | AVNTLLWQEQYS [YDR042C C-terminal 12 aa] | 0.739 ± 0.017 | 0.751 ± 0.13
14 | AWSYLARQVLYY [YGR176W C-terminal 12 aa] | 0.6986 ± 0.0046 | 0.688 ± 0.032
15 | AYEFDGDKVIVG [RIP1 C-terminal 12 aa] | 0.704 ± 0.018 | 0.6846 ± 0.0025
16 | AYSLQEGSVVAI [SIF2 C-terminal 12 aa] | 0.7139 ± 0.0064 | 0.696 ± 0.047
17 | CDSEMFASSKDE [ERI1 C-terminal 12 aa] | 0.698 ± 0.0072 | 0.74 ± 0.053
18 | CFPDDIFEYAVE [GLG1 C-terminal 12 aa] | 0.768 ± 0.015 | 0.76 ± 0.0098
19 | CGKCHSVYKVNA [RPS31 C-terminal 12 aa] | 0.70314 ± 0.00059 | 0.624 ± 0.041
20 | CGLDGKIVIYTI [ARC40 C-terminal 12 aa] | 0.6819 ± 0.0035 | 0.6704 ± 0.0027
21 | CKSNKKHKQRQG [RTC6 C-terminal 12 aa] | 0.701 ± 0.031 | 0.601 ± 0.02

Row | Sequence | protein stability index [1] | protein stability index (genetic background: wild type)
22 | CKTLNYARPQSN [BNA1 C-terminal 12 aa] | 0.6906 ± 0.0025 | 0.727 ± 0.031
23 | CNNVLYIRELPN [SMX3 C-terminal 12 aa] | 0.689 ± 0.016 | 0.6801 ± 0.0029
24 | CPSVEEIANETE [GCV2 C-terminal 12 aa] | 0.696 ± 0.013 | 0.653 ± 0.0098
25 | CVAGAHFESLLD [YNL144W-A C-terminal 12 aa] | 0.702 ± 0.0074 | 0.744 ± 0.03
26 | CVVGTLGSDLKS [YPR150W C-terminal 12 aa] | 0.7093 ± 0.0042 | 0.697 ± 0.014
27 | DAEGQENAASSE [RIM1 C-terminal 12 aa] | 0.67571 ± 0.00047 | 0.67 ± 0.0069
28 | DATSTLSSQPLD [MSP1 C-terminal 12 aa] | 0.7244 ± 0.0059 | 0.695 ± 0.037
29 | DCGWVSDAYKNH [LCL2 C-terminal 12 aa] | 0.735 ± 0.019 | 0.724 ± 0.043
30 | DDDEEDEIVEVA [HGH1 C-terminal 12 aa] | 0.698 ± 0.033 | 0.6572 ± 0.0019
31 | DDDGDYFEHDEL [KAR2 C-terminal 12 aa] | 0.688 ± 0.017 | 0.6679 ± 0.00099
32 | DDGDSDSWDTNW [CEX1 C-terminal 12 aa] | 0.701 ± 0.024 | 0.702 ± 0.014
33 | DDQDAISNQEKK [EIS1 C-terminal 12 aa] | 0.712 ± 0.057 | 0.701 ± 0.038
34 | DDRPIYKRFFSS [HXT9 C-terminal 12 aa] | 0.7117 ± 0.0052 | 0.654 ± 0.023
35 | DEDDGMIIGSLW [AEP2 C-terminal 12 aa] | 0.7004 ± 0.0057 | 0.708 ± 0.013
36 | DEELHPLSDEGM [DPP1 C-terminal 12 aa] | 0.691 ± 0.011 | 0.726 ± 0.061
37 | DEEREDDNYVPQ [CBC2 C-terminal 12 aa] | 0.689 ± 0.028 | 0.671 ± 0.022
38 | DEKVKKMVENLQ [TRS23 C-terminal 12 aa] | 0.7295 ± 0.0065 | 0.738 ± 0.077
39 | DFLTLVQTNSDT [YPL250W-A C-terminal 12 aa] | 0.712 ± 0.0071 | 0.722 ± 0.038
40 | DFNSKSKKKNDK [MIN6 C-terminal 12 aa] | 0.697 ± 0.024 | 0.6535 ± 0.0044
41 | DGPGLNNFGITL [BMT2 C-terminal 12 aa] | 0.6975 ± 0.00032 | 0.699 ± 0.035
42 | DIEINDDLNGVL [VPS41 C-terminal 12 aa] | 0.653 ± 0.016 | 0.708 ± 0.053

Row | Sequence | protein stability index [1] | protein stability index (genetic background: wild type)
43 | DIFEDSSDEEQS [SPL2 C-terminal 12 aa] | 0.7179 ± 0.00076 | 0.727 ± 0.084
44 | DKHEQPQIESPK [CFD1 C-terminal 12 aa] | 0.7 ± 0.026 | 0.684 ± 0.021
45 | DKKLEEQLRDLV [MTC3 C-terminal 12 aa] | 0.6866 ± 0.0029 | 0.689 ± 0.052
46 | DKSTFGLSPVKI [GRS2 C-terminal 12 aa] | 0.691 ± 0.033 | 0.666 ± 0.0084
47 | DLDFLGSDIEFE [HFM1 C-terminal 12 aa] | 0.718 ± 0.016 | 0.7077 ± 0.002
48 | DLESLTAKLIQG [HCA4 C-terminal 12 aa] | 0.7 ± 0.022 | 0.67282 ± 0.00041
49 | DLIDDKTNRGRR [PRP2 C-terminal 12 aa] | 0.696 ± 0.029 | 0.697 ± 0.023
50 | DLIKEHSKDIQV [HCH1 C-terminal 12 aa] | 0.6872 ± 0.0016 | 0.691 ± 0.012
51 | DMEMEAIAAERD [HMF1 C-terminal 12 aa] | 0.714 ± 0.03 | 0.706 ± 0.031
52 | DNLKYSLDCDFS [BGL2 C-terminal 12 aa] | 0.709 ± 0.023 | 0.666 ± 0.0075
53 | DNRPIYKRFFSS [HXT11 C-terminal 12 aa] | 0.7072 ± 0.0066 | 0.511 ± 0.018
54 | DNTKESKDVKMN [RTT102 C-terminal 12 aa] | 0.6878 ± 0.004 | 0.673 ± 0.081
55 | DNTTKHSSNVHT [YER079W C-terminal 12 aa] | 0.668 ± 0.014 | 0.667 ± 0.0093
56 | DNVEQRVLKQYM [EMC3 C-terminal 12 aa] | 0.6864 ± 0.0062 | 0.651 ± 0.0092
57 | DPLYYVYCLHMP [NAT4 C-terminal 12 aa] | 0.6582 ± 0.0016 | 0.643 ± 0.0089
58 | DQPFYKSLFSRK [HXT1 C-terminal 12 aa] | 0.7117 ± 0.0036 | 0.685 ± 0.053
59 | DRDGCVNAVLLV [NSA2 C-terminal 12 aa] | 0.701 ± 0.012 | 0.6768 ± 0.0054
60 | DRWLNRKALNKG [BUD21 C-terminal 12 aa] | 0.695 ± 0.031 | 0.676 ± 0.021
61 | DSATLVNVHIKR [SPR3 C-terminal 12 aa] | 0.7064 ± 0.0062 | 0.7269 ± 0.0019
62 | DSNTGGIIASIF [YKL104W-A C-terminal 12 aa] | 0.702 ± 0.027 | 0.696 ± 0.027
63 | DSSKYSLGNNSS [SUR1 C-terminal 12 aa] | 0.713 ± 0.025 | 0.686 ± 0.016

Row | Sequence | protein stability index [1] | protein stability index (genetic background: wild type)
64 | DTFIPSTLQSVT [YNL089C C-terminal 12 aa] | 0.702 ± 0.026 | 0.678 ± 0.015
65 | DTVKILTELFNL [SEC53 C-terminal 12 aa] | 0.707 ± 0.011 | 0.732 ± 0.062
66 | DTVPPEKLMKFV [RAX2 C-terminal 12 aa] | 0.7111 ± 0.0024 | 0.66 ± 0.027
67 | DVEELREQLENC [AIM7 C-terminal 12 aa] | 0.692 ± 0.0025 | 0.723 ± 0.018
68 | DVQGICLRNDKK [SLX4 C-terminal 12 aa] | 0.684 ± 0.011 | 0.651 ± 0.008
69 | DYDEEDPYEDPF [IKI1 C-terminal 12 aa] | 0.731 ± 0.042 | 0.6905 ± 0.0059
70 | EADMKTKLDISD [NBP2 C-terminal 12 aa] | 0.695 ± 0.015 | 0.696 ± 0.023
71 | EANFWTAALEYE [THI21 C-terminal 12 aa] | 0.7334 ± 0.0016 | 0.6857 ± 0.003
72 | EANLKVLNGLEI [YPR148C C-terminal 12 aa] | 0.687 ± 0.024 | 0.667 ± 0.011
73 | EAQLSCNYEPLP [COS10 C-terminal 12 aa] | 0.707 ± 0.021 | 0.673 ± 0.0098
74 | ECAPVPPAVRSY [SDH9 C-terminal 12 aa] | 0.683 ± 0.011 | 0.6797 ± 0.0018
75 | ECYLITILWLHK [TDA2 C-terminal 12 aa] | 0.256 ± 0.031 | 0.289 ± 0.0072
76 | EDKEIVDGKVLK [TEF4 C-terminal 12 aa] | 0.663 ± 0.016 | 0.674 ± 0.023
77 | EDSHYGNAKKVT [FPS1 C-terminal 12 aa] | 0.708 ± 0.0097 | 0.688 ± 0.011
78 | EDVQLALNKHMN [YAP1 C-terminal 12 aa] | 0.685 ± 0.01 | 0.69 ± 0.0072
79 | EEESTTSENLHF [RSM25 C-terminal 12 aa] | 0.699 ± 0.0097 | 0.69 ± 0.025
80 | EELLNQPPEEQI [GPX1 C-terminal 12 aa] | 0.712 ± 0.027 | 0.766 ± 0.093
81 | EELRPDTLESEL [REC107 C-terminal 12 aa] | 0.683 ± 0.0093 | 0.6742 ± 0.0014
82 | EEMEEFKKLVMG [MIC19 C-terminal 12 aa] | 0.7037 ± 0.0043 | 0.6922 ± 0.00094
83 | EEQRNHLKDLYG [SLU7 C-terminal 12 aa] | 0.6968 ± 0.0037 | 0.702 ± 0.011
